From US20080166698A1 (Genentech, published 2008)

Biological target: T1, recombinant human DAF (human, UniProt P08174 35-353, limits assumed)
T1 construct: also called decay accelerating factor; CD55
T1 sequence (looked up): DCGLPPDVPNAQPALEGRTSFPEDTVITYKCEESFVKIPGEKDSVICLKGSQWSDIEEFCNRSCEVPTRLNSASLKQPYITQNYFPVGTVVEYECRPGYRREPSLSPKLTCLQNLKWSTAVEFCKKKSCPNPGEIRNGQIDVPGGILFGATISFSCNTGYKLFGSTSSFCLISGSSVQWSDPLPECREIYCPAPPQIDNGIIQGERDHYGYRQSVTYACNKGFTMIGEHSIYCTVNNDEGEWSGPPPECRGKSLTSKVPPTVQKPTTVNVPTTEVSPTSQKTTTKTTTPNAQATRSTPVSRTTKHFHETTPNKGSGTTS
Experiment: SPR (BIACORE 1000), recombinant human DAF on a CM-5 chip, LU30 scFv injected
Experimental: Affinity Measurements. Kinetic measurements were made by surface plasmon resonance using a BIACORE 1000™ Biosensor (Biacore, AB Uppsala, Sweden). CM-5 chips were functionalized with 350 response units recombinant human DAF in 10 mM sodium acetate (pH 4.6) or 8,000 response units bovine serum albumin as a negative control. The DAF-derivatized chip was saturated with LU30 scFv (25-100 nM) by injecting this fragment at 10 :l/min in PBS containing 0.5% (w/v) bovine serum albumin and 0.05% (v/v) TWEEN 20™. The resultant sensorgrams were analyzed using BIAEVALUATION™ software 3.0.

B1: LU30 scFv (scFv, V domains shown)
VH: QVKLQESGGGLVQPGGSLKLSCAASGFTFSGYGMSWIRQTPDKRLEWVATINSGGSYTYYSDSVKGRFTISRDNVKNTLYLQMSSLKSEDTAMYYCARRNGTLYYYLMDYWGRGTLVTVSS
VL: QSVLTQPPSASGSPGQSVTISCTGTSSDVGGYNYVSWYQQHPGKAPKFMIYDVSKRPSGVSNRFSGSKSGNTASLTISGVQAEDEADYYCSSYTSASTVIFGGGTKLTVL
notes: Human scFv from a naive phage library, secreted from E. coli and purified through its His tag; also called clone LU30; LU30 scFv fragment; not shown: scFv linker between the domains, domain order, and the His tag
Kd: 13 nM
koff: 0.0045 s⁻¹
kon: 340000 M⁻¹ s⁻¹
